US20250127885A1 (University of Texas, published 2025)

T1: HCMV gp34 ectodomain displayed on ExpiCHO cells (human cytomegalovirus (HCMV), UniProt P16809 24-182)
T1 construct: also called gp34-FLAG with a PDGFR anchor; not shown: C-terminal FLAG (M2) tag and PDGFR transmembrane domain
T1 sequence: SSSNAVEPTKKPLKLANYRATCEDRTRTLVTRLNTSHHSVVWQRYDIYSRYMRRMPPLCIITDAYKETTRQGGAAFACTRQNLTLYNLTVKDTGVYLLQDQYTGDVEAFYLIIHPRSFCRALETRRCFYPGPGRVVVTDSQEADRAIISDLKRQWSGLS


Legend:
[1] = target: T1, HCMV gp34 ectodomain displayed on …; test: flow cytometry on gp34-transfected ExpiCHO cells, antibody-mFc at 10 ug/mL, anti-mouse Fcγ AF647
Protocol: Then, hCMV gp34 was expressed on the surface of ExpiCHO cells using a mammalian expression plasmid containing a signal sequence, gp34 ectodomain with a C-terminal FLAG tag, and a PDGFR transmembrane domain. ExpiCHO cells were transfected using the gp34 transmembrane construct and cultured for two days at 37° C./8% CO₂. Successful expression of gp34 on the surface was detected by staining transfected and untransfected ExpiCHO cells with a 1:500 dilution of anti-FLAG PE antibody for 1 hour on ice (Agilent Technologies, Catalogue #PJ315-1). […] Fluorescence was detected using a BD Fortessa system.

[2] = target: T2, human IgG1 Fc (no Fab arms) (human, UniProt P0DOX5 230-449 = IgG part); test: ELISA, human Fc coated, FLAG-tagged receptor titrated, anti-FLAG (M2)-HRP; curve assigned by paragraph 53 (top line at 10 ug/mL)
T2 construct: also called huFc; hu-Fc

[3] = target: T2, human IgG1 Fc (no Fab arms); test: ELISA, human Fc coated, FLAG-tagged receptor titrated, anti-FLAG (M2)-HRP; curve assigned by paragraph 53 (lower line at 10 ug/mL)

| Binder | binding result [1] | further results |
| --- | --- | --- |
| anti-gp34 antibody 34-4 with murine IgG2a Fc (antibody, V domains shown, Variable domains on human CL and human CH1 joined to murine IgG2a Fc; also called antibody-mFc; not shown: human CH1 region; murine IgG2a Fc (mFc)) VH: QVQLQQSGTVLARPGASVKMSCKASGYTFTAYWMHWVKQRPGQGLEWIGAIYPGNSDAGYNQKFKGKAKLTAVTSTSTAYMELSSLANEDSAVYYCTRWGNNSFWGQGTTLTVSS VL: DIQMTQSPSSMYASLGERVTITCKASQDINSYLTWFQQKPGKSPKTLIYRANRLVDGVPSRFSGSGSGQDYSLTISTLEYEDMGIYYCLQYDEFPPTFGAGTKLELKR | binds |  |
| anti-gp34 antibody 34-2 with murine IgG2a Fc (antibody, V domains shown, Variable domains on human CL and human CH1 joined to murine IgG2a Fc; also called antibody-mFc; not shown: human CH1 region; murine IgG2a Fc (mFc)) VH: QVQLQQSGTELVKPGASVKLSCTASGFNIKDTYMHWVKQRPEQGLEWIGRIDPASDDTKYDPKFQGKAAITADTSSNTAYLQLSSLTSEDTAVYYCSKDGYYAYWGQGTLVTVSA VL: DIVMTQSPASLAVSLGQRATISCRASESVDSYGNSFMHWYQQKPGQPPKLLIYRASNLESGIPARFSGSGSRTDFTLTINPVEADDVATYYCQQSYEVPRTFGGGTKLEIKR | binds |  |
| anti-gp34 antibody 34-5 with murine IgG2a Fc (antibody, V domains shown, Variable domains on human CL and human CH1 joined to murine IgG2a Fc; also called antibody-mFc; not shown: human CH1 region; murine IgG2a Fc (mFc)) VH: QVQLQQSGAELVRPGTSVKVSCKTSGYAFTNYLIEWVKQRPGQGLEWIGVINPGSGGTNYNEKFKGKATLTADKSSSTAYMQLSSLTSDDSAVYFCVLQVGRLAYWGQGTLVTVSA VL: not shown | binds |  |
| soluble wild-type HCMV gp34 ectodomain (receptor, Prone to aggregation; SEC-purified for the ELISA; also called WT gp34; wild-type (WT) gp34; not shown: C-terminal FLAG (M2) tag and Strep tag) SSSNAVEPTKKPLKLANYRATCEDRTRTLVTRLNTSHHSVVWQRYDIYSRYMRRMPPLCIITDAYKETTRQGGAAFACTRQNLTLYNLTVKDTGVYLLQDQYTGDVEAFYLIIHPRSFCRALETRRCFYPGPGRVVVTDSQEADRAIISDLKRQWSGLS |  | EC50 (read off the curve) [2]: ~0.1 µg/mL |
| soluble HCMV gp34 ectodomain with C150S (gp34-M) (receptor, also called gp34 C150S; Soluble gp34 C150S; not shown: C-terminal FLAG (M2) tag and single Strep tag) SSSNAVEPTKKPLKLANYRATCEDRTRTLVTRLNTSHHSVVWQRYDIYSRYMRRMPPLCIITDAYKETTRQGGAAFACTRQNLTLYNLTVKDTGVYLLQDQYTGDVEAFYLIIHPRSFCRALETRRSFYPGPGRVVVTDSQEADRAIISDLKRQWSGLS |  | EC50 (read off the curve) [3]: ~0.04 µg/mL |
